{"source": "patent US8445240B2", "about": "“Termite enzymes and uses thereof for in vitro conversion of lignin-containing materials to fermentable products” (University of Florida Research Foundation, Inc., priority 2009, dated 2013)", "key": {"[1]": {"assay": "Glucose release from pine sawdust by recombinant enzymes and mixtures", "assay_type": "biochemical", "settings": "2% w/v, 18 hrs, 37° C., pH 7", "method": "All reactions were performed in 0.1 M sodium acetate buffer containing 10 mM calcium chloride (pH 7). The two feedstock substrates were pine sawdust (=lignin+cellulose+hemicellulose) and beechwood xylan (=lignin+hemicellulose). Feedstocks were tested at 2% w/v (10 mg in 0.5 mL buffer). Reactions were run for 18 hrs at 37° C. with shaking at 220 rpm in vented 1.5 mL plastic tubes.\nProtein volumes used per assay were 10 μL of each of the Cell-1, β-glucosidase, and Laccase 6 recombinant protein preparations. These loading volumes provided 8.5, 7.9 and 2.0 μg of each protein, respectively, per reaction. The storage buffer for Cell-1 and β-glucosidase was 0.1 M sodium acetate, 0.15 M sodium chloride, and 0.5 M calcium chloride (pH 5.8). The storage buffer for Laccase 6 was 0.1M boric acid, phosphoric acid, and acetic acid (pH 7.0).\nReactions were stopped after 18 hours by the addition of 10 μL of 0.2 Methylene-diamine tetra-acetic acid and centrifuged for 5 min at 16,000×g. Glucose detection was performed in triplicate on 125 μL aliquots of each reaction supernatant. The entire experiment was replicated three times. Glucose release was measured using the Autokit Glucose reagent kit (Wako Chemical, Richmond, Va.) at a volume of 125 μL per determination. Glucose was quantified based on absorbance at 505 nm relative to glucose standard curves. Standard curves were prepared in eight serial dilutions downward from 0.6 mM in sodium acetate-calcium chloride reaction buffer."}, "[2]": {"assay": "Characterisation of recombinant RfLacA and RfLacB isoforms", "assay_type": "biochemical"}, "[3]": {"assay": "Lignin alkali metabolism by RfLacA, HPLC analysis", "assay_type": "biochemical", "settings": "1% w/v, pH 7.5, 16 hr, 32° C."}, "[4]": {"assay": "Preliminary stability test of purified recombinant Cell-1", "assay_type": "physicochemical", "settings": "incubation at 65° C. or 26° C. for 65 hr", "text": "An approximately 48 kDa band was present in baculovirus-infected larvae, but absent from uninfected and blank virus controls. Following purification and concentration the recombinant Cell-1 protein migrated as a single band at approximately 48 kDa. […] In addition to endoglucanase activity (the expected activity for Cell-1), exoglucanase and β-glucosidase activities were also investigated using the substrates pNPC and pNPG. All three activities were present in both uninfected and blank-virus-infected T. ni larvae, with exoglucanase and β-glucosidase activity being the strongest. However, only endoglucanase activity remained for purified Cell-1. In agreement with SDS-PAGE results, it was enriched at least 10-fold relative to clarified supernatants of infected larvae."}, "[5]": {"assay": "Colorimetric β-1,4-endoglucanase assay of Cell-1 on CMC", "assay_type": "biochemical", "settings": "BEVS-expressed; 100 mM sodium acetate pH 6.5, 25° C.", "method": "Colorimetric β-1,4-endoglucanase enzyme assays: Six total substrates were tested: CMC (carboxymethyl cellulose), pNPG (p-nitrophenyl-beta-D-glucopyranoside), pNPC2 (p-nitrophenyl-beta-D-cellobioside), pNPC3 (p-nitrophenyl-beta-D-cellotrioside), pNPC4 (p-nitrophenyl-beta-D-cellotetraoside), and pNPC5 (p-nitrophenyl-beta-D-cellopentaoside). All assay methods were carried out under optimal conditions (Zhou et al., (2007) Gene 395:29-39).\n(FIG. 7). For subsequent characterizations, the 1.5% CMC concentration was used. pH studies were performed by dissolving 1.5% CMC in two different buffer systems: 100 mM sodium acetate (pH 3-6.5) and 100 mM sodium phosphate (pH 7-10.5), as shown in FIG. 8. […] Temperature-cofactor studies were performed using 1.5% CMC dissolved in 100 mM sodium phosphate (pH 7) alone, plus 4 mM EDTA (final concentration), or plus 10 mM calcium chloride (final concentration). Pre-incubations took place for 0-5 days at 25° C. or 0-60 min at 60° C. or 70° C.; reactions were terminated by the combination of adding stop solution and boiling for 10 min, and then assays were read at 25° C. (FIG. 9)."}, "[6]": {"assay": "E. coli-expressed Cell-1 against exoglucanase and β-glucosidase substrates", "assay_type": "biochemical", "settings": "Ni-purified active fractions", "method": "Soluble fractions obtained after 19° C. IPTG induction were subjected to Ni-chromatography for purification. The His-tagged Cell-1 was retained on Ni columns and eluted in a single peak of CMC activity after the introduction of imidazole elution buffer."}}}
{"molecule": "RfLacA: recombinant R. flavipes gut laccase isoform 1, clone Lac6, SEQ ID NO.: 8 (protein, Reticulitermes flavipes; amino acid sequence Laccase Lacc-6) LIRLTIGQAVVSTQSTREAVVSTQSTRDTALSVYRSDAYIMLPCVLLACAIGVASATSVLLNSYLQPNDDIDRNTYLLNAKSNNCARICNGTEAPKICYYQWTIENYVTLSEACDNCPLNVTACYNAQCITADGYERSILSVNRKLPGPSIEVCLRDRVIVDITNNMAGRTTSIHWHGVFQKGSQYMDGVPMVTQCTIHEGDTFRYDFIANNEGTHFWHSHDGLQKLDGVTGNLVVRVPKNFDPNGQLYDFDLPEHKIFISDWLHLSADDHFPGLRATNPGQDANSFLINGRGRTLIGTQSTNTPYAQINVQWGRRYRLRIVGSLCTVCPTQLTIDGHKITVIATDGNSVAPARVDSLIIYSGERYDVVLEATNTEGSYWIHLKGLATCVGSRVYQLGVLQYENTTTNKLHALTPDPGYDGFPQPASYRVLNPENASCSIGSTGLCVTQLANSDPVPRDILTQLPDINYLLQFGFETFDSRSFFKAYDRYFVSPFLELLSSTVNNISFVSPPSPLLSQRGDVPDDILCPTGADGLPQCPGGNSYCTCVHVIKIKLGALVQIILSDQSPKSDLNHPFHIHGHAFYVLGMGQYAAGQTAQDLLNSLKSNVSSVSPAPVLKDTVAVPSGGYAIIKFRPKNPGYWFLHCHFLYHVATGMSVVLQVGETSDYPPTPDGFPKCGSFTPPVNTN", "values": [{"measurement": "glucose release from pine sawdust (in words)", "setting": "[1]", "result": "No glucose release was detectable"}, {"measurement": "oxidation of ABTS and syringaldazine", "setting": "[2]", "result": "unable to oxidize"}, {"measurement": "action on lignin alkali", "setting": "[3]", "result": "evidence of RfLacA action on lignin"}]}
{"molecule": "Cell-1: host-derived β-1,4-endoglucanase (GHF9) from Reticulitermes flavipes, SEQ ID NO.: 2; recombinant, BEVS or E. coli expressed (protein, Reticulitermes flavipes; amino acid sequence Beta-1,4-endoglucanase (Cell-1), recombinant, BEVS or E. coli expressed) MKVFVCLLSALALCQAAYDYKTVLSNSLLFYEAQRSGKLPSDQKVTWRKDSALNDKGQKGEDLTGGYYDAGDFVKFGFPMAYTVTVLAWGVIDYESAYSAAGALDSGRKALKYGTDYFLKAHTAANEFYGQVGQGDVDHAYWGRPEDMTMSRPAYKIDTSKPGSDLAAETAAALAATAIAYKSADATYSNNLITHAKQLFDFANNYRGKYSDSITDAKNFYASGDYKDELVWAAAWLYRATNDNTYLTKAESLYNEFGLGNWNGAFNWDNKISGVQVLLAKLTSKQAYKDKVQGYVDYLISSQKKTPKGLVYIDQWGTLRHAANSALIALQAADLGINAATYRAYAKKQIDYALGDGGRSYVVGFGTNPPVRPHHRSSSCPDAPAVCDWNTYNSAGPNAHVLTGALVGGPDSNDSYTDARSDYISNEVATDYNAGFQSAVAGLLKAGV", "values": [{"measurement": "protein stability in purified form", "setting": "[4]", "result": "no protein degradation"}, {"measurement": "glucose release from pine sawdust", "setting": "[1]", "result": 3.70, "unit": "pmol/min"}, {"measurement": "Km against CMC", "setting": "[5]", "result": 1.496, "unit": "% w/v"}, {"measurement": "Vmax against CMC", "setting": "[5]", "result": 1.469, "unit": "pmol/min/mg"}, {"measurement": "activity against pNPC and pNPG", "setting": "[6]", "result": "no activity"}]}
